# From US20240325481A1 (MOREHOUSE SCHOOL OF MEDICINE, published 2024)
# B1: MoMo30 protein (hevamine A-related protein) from Momordica balsamina, purified from leaf extract (other)
# chain: GGIATYWGQDTREGRLTAACATGKFQIINIGFLSTFGNGRPPQVNLTRHCSPISNGCRNVSVGVLNCRNDGVKVMLSIGGPHGSYSLSSAAEAIDLADYIWNNFLGGRSTSLRPFGDVPLDGVDFRIERGQFSHYYTMVARRLHDYGRQCSRKVYLTAAPGCRFPDKYLTELLHTGLFDYVWVRFFDDRQCQYNSVNPSGFWWSWMRWINSIPARKFYVGIPASEEAGDGYVAPEVLIKEVLPFTKKFTNYGGVMLFDLSNDVQTNYSSIISNRV
# Target: gp120 of HIV-1NL4-3 virus (on virus particles) (HIV-1 (NL4-3))
# Test: cell-based or functional assay
binder,measurement,value
B1,"IC50, inhibition of HIV-1NL4-3 infectivity in MAGI cell assay",2.8 nM
